In IntAct's records for PubMed 17227844:

B1: Spindle assembly checkpoint protein BUB3 (Saccharomyces cerevisiae), P26449 (parent)
chain: MQIVQIEQAPKDYISDIKIIPSKSLLLITSWDGSLTVYKFDIQAKNVDLLQSLRYKHPLLCCNFIDNTDLQIYVGTVQGEILKVDLIGSPSFQALTNNEANLGICRICKYGDDKLIAASWDGLIEVIDPRNYGDGVIAVKNLNSNNTKVKNKIFTMDTNSSRLIVGMNNSQVQWFRLPLCEDDNGTIEESGLKYQIRDVALLPKEQEGYACSSIDGRVAVEFFDDQGDDYNSSKRFAFRCHRLNLKDTNLAYPVNSIEFSPRHKFLYTAGSDGIISCWNLQTRKKIKNFAKFNEDSVVKIACSDNILCLATSDDTFKTNAAIDQTIELNASSIYIIFDYEN
partner: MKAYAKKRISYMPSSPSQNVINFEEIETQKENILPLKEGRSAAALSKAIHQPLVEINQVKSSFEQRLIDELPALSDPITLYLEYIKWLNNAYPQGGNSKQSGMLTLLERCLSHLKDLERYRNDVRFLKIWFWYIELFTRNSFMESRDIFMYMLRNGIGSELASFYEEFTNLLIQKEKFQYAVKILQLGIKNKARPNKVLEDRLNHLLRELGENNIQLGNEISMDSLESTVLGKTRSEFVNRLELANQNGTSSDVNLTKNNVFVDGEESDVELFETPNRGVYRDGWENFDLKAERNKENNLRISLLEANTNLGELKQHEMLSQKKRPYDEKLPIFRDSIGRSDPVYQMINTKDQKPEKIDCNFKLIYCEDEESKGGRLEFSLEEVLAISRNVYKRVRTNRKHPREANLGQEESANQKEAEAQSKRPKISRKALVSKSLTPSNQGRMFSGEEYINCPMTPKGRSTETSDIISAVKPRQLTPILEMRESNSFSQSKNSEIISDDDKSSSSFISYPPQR

Variants of: B1
Conditions: with mad3_yeast MAD3, P47074

| Variant | effect of a mutation on the interaction |
| --- | --- |
| R197E | disrupting interaction strength |
